Results on two variants are retold here after IntAct's records for PubMed 15893672.

B1: Angiopoietin-2 (Homo sapiens), O15123-1 (parent)
chain: MWQIVFFTLSCDLVLAAAYNNFRKSMDSIGKKQYQVQHGSCSYTFLLPEMDNCRSSSSPYVSNAVQRDAPLEYDDSVQRLQVLENIMENNTQWLMKLENYIQDNMKKEMVEIQQNAVQNQTAVMIEIGTNLLNQTAEQTRKLTDVEAQVLNQTTRLELQLLEHSLSTNKLEKQILDQTSEINKLQDKNSFLEKKVLAMEDKHIIQLQSIKEEKDQLQVLVSKQNSIIEELEKKIVTATVNNSVLQKQQHDLMETVNNLLTMMSTSNSAKDPTVAKEEQISFRDCAEVFKSGHTTNGIYTLTFPNSTEEIKAYCDMEAGGGGWTIIQRREDGSVDFQRTWKEYKVGFGNPSGEYWLGNEFVSQLTNQQRYVLKIHLKDWEGNEAYSLYEHFYLSSEELNYRIHLKGLTGTAGKISSISQPGNDFSTKDGDNDKCICKCSQMLTGGWWFDACGPSNLNGMYYPQRQNTNKFNGIKWYYWKGSGYSLKATTMMIRPADF

This assay covers variants of B1. Particulars: with tie2_human TEK.
Regarding F469A;Y475A;Y476A, the “effect of a mutation on the interaction” value is “disrupting interaction”.

With K468E;K473E, the “effect of a mutation on the interaction” value was “disrupting interaction”.
